# Paper PMC4335062, “Data-Driven Prediction and Design of bZIP Coiled-Coil Interactions” (PLoS Computational Biology, 2015)
# Several values for one entry are separate records, joined by “and”; a condition that tells them apart may be missing. Equal values may be shown once. Where no end group is shown, it is not given here.
# T1: ATF4 (Homo sapiens, UniProt P18848)
# T1 construct: made in house
# T1 sequence (P18848 278-341 limits assumed): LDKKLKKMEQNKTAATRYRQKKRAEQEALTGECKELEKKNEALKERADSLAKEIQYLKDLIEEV
# B1: ATF5-d1 labeled at the C-terminus (designed binder)
# chain: GESKEYKKGSGSKRIAYLRQRIAELRNENHVLESRIQRMEKEKDALQQDRDHLEYELGC(Rhodamine Red C2‑maleimide)
# modifications: not fully specified
# B2: ATF4-d1 labeled at the C-terminus (designed binder)
# chain: GESKEYKKGSGSNQIKTLRTRLSKLRKDNLQLEKDIANLERKAKDLRAEKEQLEYELGC
# modifications: also: C59 label by assay: Rhodamine Red C2-maleimide or fluorescein-5-maleimide
# notes: solubility linker after the His6 tag; added to the C-terminus for labeling; one molecule for the rhodamine- and the fluorescein-labelled form; the assay tells which label stood there; also called ATF4-d1-Rhodamine; ATF4-d1-FITC; source: E. coli RP3098, purified (Ni-NTA under denaturing conditions, reverse-phase HPLC)
# Experiments:
# [1] = molecular target: T1, ATF4; assay: Competition binding assay, unlabeled design vs FITC-labeled design and TAMRA-labeled ATF4; conditions: unlabeled design mixed with FITC-labeled design and TAMRA-labeled ATF4
# Protocol: In the competition form of the assay, a FRET pair was made by mixing 10 nM of the donor-labeled peptide with a specified concentration of the acceptor-labeled peptide in 1 mM TCEP-HCl, and 20 μL of this solution was added to the wells after unlabeled design was titrated in 2-fold dilutions over the wells to a final concentration ranging from 0 to 2.5 μM. The amount of acceptor used varied for each curve, taking into account the Kd of the FRET complex in order to obtain a good lower baseline for fitting purposes. Samples were equilibrated for one hour before reading the plates; repeated reading of the plates over several hours gave no change in signal.
# For the competition experiments, the IC50 was determined in MATLAB by fitting the binding data to the equation signal=a+b−a/(1+x/c)^H , where a and b are the lower and upper baselines, c is the IC50 value, x is the inhibitor concentration, and the Hill coefficient H was set to 1. Ki values were calculated as in Fu et al..
# [2] = molecular target: T2, JUN/FOS heterodimer (Homo sapiens, UniProt P05412); assay: Competition FRET assay; assay type: binding
# T2 construct: made in house
# Protocol: The amount of acceptor used varied for each curve, taking into account the Kd of the FRET complex in order to obtain a good lower baseline for fitting purposes. Samples were equilibrated for one hour before reading the plates; repeated reading of the plates over several hours gave no change in signal. For the competition experiments, the IC50 was determined in MATLAB by fitting the binding data to the equation signal=[…] , where a and b are the lower and upper baselines, c is the IC50 value, x is the inhibitor concentration, and the Hill coefficient H was set to 1. Ki values were calculated as in Fu et al..
# [3] = molecular target: NFE2 (human) (UniProt Q16621); assay: FRET or BRET; direct-binding FRET in 384-well plates; rhodamine-labelled design (acceptor) titrated 0 to 1 uM into 10 nM fluorescein-labelled bZIP (donor); 150 mM KCl, 50 mM potassium phosphate pH 7.4, 0.1% Tween-20, 0.1% BSA; 37 °C
# [4] = molecular target: ATF4 (human) (UniProt P18848); assay: FRET or BRET; direct-binding FRET in 384-well plates; rhodamine-labelled design (acceptor) titrated 0 to 1 uM into 10 nM fluorescein-labelled bZIP (donor); 150 mM KCl, 50 mM potassium phosphate pH 7.4, 0.1% Tween-20, 0.1% BSA; 4 °C
# [5] = molecular target: ATF2 (human) (UniProt P15336); assay: as above
# [6] = molecular target: ATF5 (human) (UniProt Q9Y2D1); assay: as above
# [7] = molecular target: NFE2L1 (Homo sapiens, UniProt Q14494); assay: as above
# [8] = molecular target: ATF5-d1 labeled at the C-terminus; assay: FRET or BRET; direct-binding FRET of the designed peptide with itself (row 'homodimer'; dimer to monomers); acceptor-labelled design titrated into donor-labelled design by note 1 of the tables; 23 °C
# [9] = molecular target: ATF4 (human) (UniProt P18848); assay: FRET or BRET; direct-binding FRET in 384-well plates; rhodamine-labelled design (acceptor) titrated 0 to 1 uM into 10 nM fluorescein-labelled bZIP (donor); 150 mM KCl, 50 mM potassium phosphate pH 7.4, 0.1% Tween-20, 0.1% BSA; 37 °C
# [10] = molecular target: CREB3L1 (human) (UniProt Q96BA8); assay: as above
# [11] = molecular target: CREB1 (human) (UniProt P16220); assay: as above
# [12] = molecular target: ATF4 (human) (UniProt P18848); assay: FRET or BRET; direct-binding FRET in 384-well plates; rhodamine-labelled design (acceptor) titrated 0 to 1 uM into 10 nM fluorescein-labelled bZIP (donor); 150 mM KCl, 50 mM potassium phosphate pH 7.4, 0.1% Tween-20, 0.1% BSA; 23 °C
# [13] = molecular target: MAFF (human) (UniProt Q9ULX9); assay: as above
# [14] = molecular target: NFE2 (human) (UniProt Q16621); assay: as above
# [15] = molecular target: ATF5-d1 labeled at the C-terminus; assay: FRET or BRET; direct-binding FRET of the designed peptide with itself (row 'homodimer'; dimer to monomers); acceptor-labelled design titrated into donor-labelled design by note 1 of the tables; 4 °C
# [16] = molecular target: the molecule itself; assay: FRET or BRET; direct-binding FRET of the designed peptide with itself (row 'homodimer'; dimer to monomers); acceptor-labelled design titrated into donor-labelled design by note 1 of the tables; 37 °C
# Sequence of ATF4 (human) (P18848 whole entry): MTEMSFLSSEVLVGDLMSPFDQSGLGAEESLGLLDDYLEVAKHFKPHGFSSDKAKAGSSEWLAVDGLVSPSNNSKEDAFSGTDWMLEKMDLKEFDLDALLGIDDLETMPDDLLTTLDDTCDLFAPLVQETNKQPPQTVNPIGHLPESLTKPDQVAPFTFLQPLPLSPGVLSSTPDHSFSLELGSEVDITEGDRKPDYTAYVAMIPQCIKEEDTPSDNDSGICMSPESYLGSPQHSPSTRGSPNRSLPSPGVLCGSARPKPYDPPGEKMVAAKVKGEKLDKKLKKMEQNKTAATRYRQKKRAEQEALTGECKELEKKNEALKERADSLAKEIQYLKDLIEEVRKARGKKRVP
# Sequence of NFE2 (human) (Q16621 whole entry): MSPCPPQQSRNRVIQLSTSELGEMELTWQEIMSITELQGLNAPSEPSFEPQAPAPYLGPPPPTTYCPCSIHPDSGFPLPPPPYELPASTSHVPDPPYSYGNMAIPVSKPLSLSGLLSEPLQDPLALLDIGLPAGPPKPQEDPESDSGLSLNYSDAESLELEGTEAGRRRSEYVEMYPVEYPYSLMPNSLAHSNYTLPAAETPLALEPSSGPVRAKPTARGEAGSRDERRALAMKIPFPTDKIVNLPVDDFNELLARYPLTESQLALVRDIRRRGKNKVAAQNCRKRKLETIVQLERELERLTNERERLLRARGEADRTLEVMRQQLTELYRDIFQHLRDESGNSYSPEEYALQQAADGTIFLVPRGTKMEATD
# Sequence of ATF5 (human) (Q9Y2D1 whole entry): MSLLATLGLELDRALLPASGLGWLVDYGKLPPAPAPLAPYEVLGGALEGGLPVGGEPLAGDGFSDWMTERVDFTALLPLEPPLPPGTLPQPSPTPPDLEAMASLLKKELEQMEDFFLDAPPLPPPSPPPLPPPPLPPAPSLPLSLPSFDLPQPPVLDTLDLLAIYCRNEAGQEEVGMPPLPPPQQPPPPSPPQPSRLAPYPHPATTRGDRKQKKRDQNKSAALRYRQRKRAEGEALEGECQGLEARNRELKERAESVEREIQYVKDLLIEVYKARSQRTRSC
# Sequence of NFE2L1 (Q14494 whole entry): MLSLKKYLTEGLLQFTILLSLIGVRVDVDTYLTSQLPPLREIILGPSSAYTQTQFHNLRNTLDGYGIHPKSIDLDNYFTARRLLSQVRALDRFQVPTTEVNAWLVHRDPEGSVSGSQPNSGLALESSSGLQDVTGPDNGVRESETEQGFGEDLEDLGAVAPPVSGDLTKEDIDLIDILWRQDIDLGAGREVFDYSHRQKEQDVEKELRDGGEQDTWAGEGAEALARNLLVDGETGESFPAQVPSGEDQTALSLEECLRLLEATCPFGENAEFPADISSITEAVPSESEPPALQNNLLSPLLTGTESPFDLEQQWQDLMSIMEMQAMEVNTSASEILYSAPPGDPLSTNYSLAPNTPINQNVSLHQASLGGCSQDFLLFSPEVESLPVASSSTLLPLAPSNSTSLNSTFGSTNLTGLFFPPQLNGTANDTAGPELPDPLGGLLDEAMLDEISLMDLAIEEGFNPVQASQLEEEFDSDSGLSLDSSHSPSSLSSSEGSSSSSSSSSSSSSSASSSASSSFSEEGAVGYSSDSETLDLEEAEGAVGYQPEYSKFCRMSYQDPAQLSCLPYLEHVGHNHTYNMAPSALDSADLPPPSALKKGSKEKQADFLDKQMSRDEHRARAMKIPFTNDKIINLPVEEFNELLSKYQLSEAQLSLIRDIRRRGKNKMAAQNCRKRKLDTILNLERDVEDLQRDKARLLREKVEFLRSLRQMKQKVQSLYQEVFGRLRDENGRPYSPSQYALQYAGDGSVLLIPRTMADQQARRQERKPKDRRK
# Sequence of MAFF (human) (Q9ULX9 whole entry): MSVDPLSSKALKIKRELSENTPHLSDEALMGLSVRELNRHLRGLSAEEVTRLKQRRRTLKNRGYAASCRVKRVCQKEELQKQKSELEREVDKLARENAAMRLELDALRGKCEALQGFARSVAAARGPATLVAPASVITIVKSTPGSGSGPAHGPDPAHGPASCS
# Sequence of ATF2 (human) (P15336 whole entry): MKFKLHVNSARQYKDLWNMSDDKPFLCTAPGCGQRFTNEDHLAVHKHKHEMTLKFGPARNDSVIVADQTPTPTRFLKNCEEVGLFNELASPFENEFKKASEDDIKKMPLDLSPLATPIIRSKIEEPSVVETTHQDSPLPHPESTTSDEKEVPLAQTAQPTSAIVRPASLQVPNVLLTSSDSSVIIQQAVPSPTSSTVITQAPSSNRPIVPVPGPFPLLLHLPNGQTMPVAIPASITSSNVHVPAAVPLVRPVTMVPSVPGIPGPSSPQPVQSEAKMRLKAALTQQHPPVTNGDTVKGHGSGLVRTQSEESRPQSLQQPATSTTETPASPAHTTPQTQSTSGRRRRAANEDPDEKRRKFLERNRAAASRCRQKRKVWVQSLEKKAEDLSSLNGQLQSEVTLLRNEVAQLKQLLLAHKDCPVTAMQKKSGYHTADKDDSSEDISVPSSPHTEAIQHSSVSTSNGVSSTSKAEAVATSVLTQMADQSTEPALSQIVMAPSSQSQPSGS
# Sequence of CREB3L1 (human) (Q96BA8 whole entry): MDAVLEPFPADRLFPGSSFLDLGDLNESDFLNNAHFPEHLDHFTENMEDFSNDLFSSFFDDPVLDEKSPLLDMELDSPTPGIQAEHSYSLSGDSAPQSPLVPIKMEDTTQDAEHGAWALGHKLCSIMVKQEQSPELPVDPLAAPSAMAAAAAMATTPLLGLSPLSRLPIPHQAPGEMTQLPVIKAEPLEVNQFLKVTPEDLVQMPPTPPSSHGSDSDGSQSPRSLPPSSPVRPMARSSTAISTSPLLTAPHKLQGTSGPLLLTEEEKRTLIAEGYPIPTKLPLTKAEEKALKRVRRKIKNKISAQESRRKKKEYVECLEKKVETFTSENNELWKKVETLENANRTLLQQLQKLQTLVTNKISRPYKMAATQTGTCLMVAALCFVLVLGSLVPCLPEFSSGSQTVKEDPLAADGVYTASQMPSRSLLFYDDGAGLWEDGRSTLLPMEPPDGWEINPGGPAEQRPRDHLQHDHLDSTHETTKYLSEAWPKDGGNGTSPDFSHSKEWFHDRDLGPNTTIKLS
# Sequence of CREB1 (human) (P16220 whole entry): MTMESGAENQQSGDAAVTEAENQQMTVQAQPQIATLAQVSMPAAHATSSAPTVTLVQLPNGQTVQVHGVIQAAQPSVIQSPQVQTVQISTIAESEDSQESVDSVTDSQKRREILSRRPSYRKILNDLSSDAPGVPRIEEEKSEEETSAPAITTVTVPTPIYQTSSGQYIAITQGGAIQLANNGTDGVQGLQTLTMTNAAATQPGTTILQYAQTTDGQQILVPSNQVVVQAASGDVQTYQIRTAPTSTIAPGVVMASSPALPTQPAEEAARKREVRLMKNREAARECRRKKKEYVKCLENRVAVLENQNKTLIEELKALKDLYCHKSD
molecule,measurement,setting,value
KRIAYLRQRIAELRNENHVLESRIQRMEKEKDALQQDRDHLEYEL [ATF5-d1],Ki,[1],6 nM
NQIKTLRTRLSKLRKDNLQLEKDIANLERKAKDLRAEKEQLEYEL [ATF4-d1],Ki,[1],48 nM
SIAATLEKEEANLEKMNKKLAAEIESLLKEKDKLESVLNYHE [JUN-d1],IC50,[2],245 nM
B1,Kd,[3],> 5000 nM
same,Kd,[4],1 nM
same,Kd,[5],> 5000 nM
same,Kd,[6],1.1 nM and 1.2 nM and 1 nM
same,Kd,[7],> 5000 nM
same,Kd,[8],1000 nM
same,Kd,[9],4.8 nM and 4 nM and 6 nM
same,Kd,[10],1000 nM
same,Kd,[11],1000 nM
same,Kd,[12],1 nM
same,Kd,[13],> 5000 nM
same,Kd,[14],> 5000 nM
same,Kd,[15],1000 nM
B2,Kd,[16],1820 nM and 1110 nM and 2520 nM
same,Kd,[3],2920 nM
same,Kd,[4],1 nM
same,Kd,[5],1000 nM
same,Kd,[6],> 5000 nM
same,Kd,[7],> 5000 nM
same,Kd,[9],11.3 nM and 9.9 nM and 6.8 nM
same,Kd,[12],1 nM
same,Kd,[13],623 nM
same,Kd,[14],> 5000 nM
